The record followed here is patent US20230313203A1.

By Kd is commonly meant the constant that tells how readily two partners part at equilibrium.

Common to all, as to assay: filter
Data set [1] concerns the target SARS-CoV-2 spike S1 (Wuhan), His-tagged (SARS-CoV-2) (UniProt P0DTC2).
The target in data set [2] is SARS-CoV-2 spike receptor binding domain (Wuhan) (SARS-CoV-2) (UniProt P0DTC2).
In data set [3] the target is SARS-CoV-1 spike S1 (SARS-CoV-1) (UniProt P59594).
The target in data set [4] is SARS-CoV-2 spike S1 (Wuhan), untagged (SARS-CoV-2) (UniProt P0DTC2).
The mark [5] stands for this setting: first 20 nt DNA, rest FANA (SEQ ID NO 1).
[6] abbreviates: first 20 nt DNA, rest FANA (SEQ ID NO 3).
Setting [7] is: first 20 nt DNA, rest FANA (T in random region is faU).
[8] abbreviates: first 20 nt DNA, rest FANA (SEQ ID NO 17).

“And” between values parts separate entries of the source, which are not always exact repeats. Identical values can stand only once. Like-named read-outs stand apart in the source and are kept apart here.

Turning to “AAAAGGTAGTGCTGAATTCGUCGAACUAAACCGAAUUGAUGGCAUAAAAAGCAUGUUUAGUUCGCUAUCCAGUUGGCCU [FANA-R8-5]”, the Kd was 16.6 nM in data set [1] (setting [5]) and 26.4 nM in data set [2] (setting [5]).
As to “AAAAGGTAGTGCTGAATTCGUCGAACUAAUCCGAAUUGAUGGCAUAAAAAGCAUGUUUAGUUCGCUAUCCAGUUGGCCU [FANA-R8-17]”, the Kd in data set [1] (setting [6]) is 19.1 nM; in data set [2] (setting [6]) it was 29.5 nM.
With “AAAAGGTAGTGCTGAATTCGATTCTCGATTGATGGCATAAAAAGCATAGAATCGCAAGCAUUCGCUAUCCAGUUGGCCU [FANA-R8-7]”, the Kd in data set [1] (setting [7]) stood at 31.2 nM; in data set [2] (setting [7]) it was 62.8 nM.
On to “AAAAGGTAGTGCTGAATTCGCGAGCCCGCAUGAAAAGGGGAGAUAAAAAAUAUCUGUCGAUUCGCUAUCCAGUUGGCCU [FANA-R8-9]”, for which the Kd is 259 nM in data set [3]; 14.7 nM in data set [1]; 29.6 nM in data set [4]; 23.5 nM and 19.6 nM in data set [2].
Regarding “AAAAGGTAGTGCTGAATTCGCGAGCCCGCAUGAAAAGGGGAGAUAUGCAAUAUCUGUCGAUUCGCUAUCCAGUUGGCCU [FANA-R8-22]”, the Kd worked out at 13.3 nM in data set [1] (setting [8]) and 21.3 nM in data set [2] (setting [8]).
As to “AAAAGGTAGTGCTGAATTCGGGAGCTCGAACAGATGGGATAAAAAGCATAGCTCACCAATUUCGCUAUCCAGUUGGCCU [FANA-R8-15]”, the Kd was found to be 27.7 nM in data set [1] (setting [7]) and 43.3 nM in data set [2] (setting [7]).
“AAAAGGTAGTGCTGAATTCGGTCGCGATTAACATTAAACCGCATAAAAAGGGTGGCCGGAUUCGCUAUCCAGUUGGCCU [FANA-R8-3]”: the Kd is 46.4 nM in data set [1] (setting [7]) and 68.1 nM in data set [2] (setting [7]).
“AAAAGGTAGTGCTGAATTCGNNNNNNNNNNNNNNNNNNNNNNNNNNNNNNNNNNNNNNNNUUCGCUAUCCAGUUGGCCU [FANA-ST]” showed a Kd in data set [2] (first 20 nt DNA, rest 2'-fluoro-arabino (FANA)) of 1700 nM.
